B1: Azoarcus group I ribozyme (parent)
chain: GUGCCUUGCGCCGGGAAACCACGCAAGGGAUGGUGUCAAAUUCGGCGAAACCUAAGCGCCCGCCCGGGCGUAUGGCAACGCCGAGCCAAGCUUCGGCGCCUGCGCCGAUGAAGGUGUAGAGACUAGACGGCACCCACCUAAGGCAAACGCUAUGGUGAAGGCAUAGUCCAGGGAGUGGCGAAAGUCACACAAACCGG

Variants of: B1
Experiment: reverse-splicing fitness (ratio to wild type); higher = more active; in vitro selection; Mg2+ level not given
In short: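 An in vitro group I ribozyme library with randomized positions was T7-transcribed and gel-purified. In triplicate, 10 pmol RNA in EPPS pH 7.5 was reacted with 50 pmoles of a 30-nt RNA substrate for 1 h at 37 °C across several added MgCl2 levels (1–48 mM), then stopped with EDTA. Products were reverse transcribed from a substrate-complementary primer, PCR-amplified and sequenced (HiSeq 4000). Fitness is a variant's read proportion after selection over that before, normalised to wild type.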

Variant	reverse-splicing fitness
GUGCCUUGCGCCGGGAAACCACGCAAGGGAUGGUGUCAAAUUCGGCGAAACCUAAGCGCCCGCCCGGGCGUAUGGCAACGCAGAGCCAAGCUUCGGCGCCUGCGCCGAUGAAGGUGUAGUGACUAGACGGCACCCACCUAAGGCAAACGCUAUGGUGAAGGCAUAGUCCAGGGAGCGGCGAAAGUCACACAAACCGG [C82A A120U U176C]	0.0627
GUGCCUUGCGCCGGGAAACCACGCAAGGGAUGGUGUCAAAUUCGGCGAAACCUAAGCGCCCGCCCGGGCGUAUGGCAACGCAGAGCCAAGCUUCGGCGCCUGCGCCGAUGAAGGUGUAGUGACUAGACGGCACCCACCUAAGGCAAACGCUAUGGUGAAGGCAUAGUCCAGGGAGGGGCGAAAGUCACACAAACCGG [C82A A120U U176G]	0.0095
GUGCCUUGCGCCGGGAAACCACGCAAGGGAUGGUGUCAAAUUCGGCGAAACCUAAGCGCCCGCCCGGGCGUAUGGCAACGCAGAGCCAAGCUUCGGCGCCUGCGCCGAUGAAGGUGUAGUGACUAGACGGCACCCACCUAAGGCAAACGCUAUGGUGAAGGCAUAGUCCAGGGAGAGGCGAAAGUCACACAAACCGG [C82A A120U U176A]	0.0313
GUGCCUUGCGCCGGGAAACCACGCAAGGGAUGGUGUCAAAUUCGGCGAAACCUAAGCGCCCGCCCGGGCGUAUGGCAACGCAGAGCCAAGCUUCGGCGCCUGCGCCGAUGAAGGUGUAGAGACUAGACGGCACCCACCUAAGGCCAACGAUAUGGUGAAGGCAUAGUCGAGGGAGAGGCGAAAGUCACACAAACCGG [C82A A145C C150A C169G U176A]	0.0232
GUGCCUUGCGCCGGGAAACCACGCAAGGGAUGGUGUCAAAUUCGGCGAAACCUAAGCGCCCGCCCGGGCGUAUGGCAACGCAGAGCCAAGCUUCGGCGCCUGCGCCGAUGAAGGUGUAGAGACUAGACGGCACCCACCUAAGGCCAACGAUAUGGUGAAGGCAUAGUCGAGGGAGCGGCGAAAGUCACACAAACCGG [C82A A145C C150A C169G U176C]	0.0122
GUGCCUUGCGCCGGGAAACCACGCAAGGGAUGGUGUCAAAUUCGGCGAAACCUAAGCGCCCGCCCGGGCGUAUGGCAACGCAGAGCCAAGCUUCGGCGCCUGCGCCGAUGAAGGUGUAGAGACUAGACGGCACCCACCUAAGGCCAACGAUAUGGUGAAGGCAUAGUCGAGGGAGGGGCGAAAGUCACACAAACCGG [C82A A145C C150A C169G U176G]	0.00671
GUGCCUUGCGCCGGGAAACCACGCAAGGGAUGGUGUCAAAUUCGGCGAAACCUAAGCGCCCGCCCGGGCGUAUGGCAACGCAGAGCCAAGCUUCGGCGCCUGCGCCGAUGAAGGUGUAGAGACUAGACGGCACCCACCUAAGGCCAACGGUAUGGUGAAGGCAUAGUCAAGGGAGUGGCGAAAGUCACACAAACCGG [C82A A145C C150G C169A]	0.00909
GUGCCUUGCGCCGGGAAACCACGCAAGGGAUGGUGUCAAAUUCGGCGAAACCUAAGCGCCCGCCCGGGCGUAUGGCAACGCAGAGCCAAGCUUCGGCGCCUGCGCCGAUGAAGGUGUAGAGACUAGACGGCACCCACCUAAGGCCAACGGUAUGGUGAAGGCAUAGUCGAGGGAGUGGCGAAAGUCACACAAACCGG [C82A A145C C150G C169G]	0.00828
GUGCCUUGCGCCGGGAAACCACGCAAGGGAUGGUGUCAAAUUCGGCGAAACCUAAGCGCCCGCCCGGGCGUAUGGCAACGCAGAGCCAAGCUUCGGCGCCUGCGCCGAUGAAGGUGUAGAGACUAGACGGCACCCACCUAAGGCCAACGAUAUGGUGAAGGCAUAGUCCAGGGAGUGGCGAAAGUCACACAAACCGG [C82A A145C C150A]	0.0312
GUGCCUUGCGCCGGGAAACCACGCAAGGGAUGGUGUCAAAUUCGGCGAAACCUAAGCGCCCGCCCGGGCGUAUGGCAACGCAGAGCCAAGCUUCGGCGCCUGCGCCGAUGAAGGUGUAGAGACUAGACGGCACCCACCUAAGGCCAACGGUAUGGUGAAGGCAUAGUCCAGGGAGUGGCGAAAGUCACACAAACCGG [C82A A145C C150G]	0.0739
GUGCCUUGCGCCGGGAAACCACGCAAGGGAUGGUGUCAAAUUCGGCGAAACCUAAGCGCCCGCCCGGGCGUAUGGCAACGCAGAGCCAAGCUUCGGCGCCUGCGCCGAUGAAGGUGUAGAGACUAGACGGCACCCACCUAAGGCCAACGAUAUGGUGAAGGCAUAGUCCAGGGAGAGGCGAAAGUCACACAAACCGG [C82A A145C C150A U176A]	0.0316
GUGCCUUGCGCCGGGAAACCACGCAAGGGAUGGUGUCAAAUUCGGCGAAACCUAAGCGCCCGCCCGGGCGUAUGGCAACGCAGAGCCAAGCUUCGGCGCCUGCGCCGAUGAAGGUGUAGAGACUAGACGGCACCCACCUAAGGCCAACGAUAUGGUGAAGGCAUAGUCCAGGGAGCGGCGAAAGUCACACAAACCGG [C82A A145C C150A U176C]	0.0306
GUGCCUUGCGCCGGGAAACCACGCAAGGGAUGGUGUCAAAUUCGGCGAAACCUAAGCGCCCGCCCGGGCGUAUGGCAACGCAGAGCCAAGCUUCGGCGCCUGCGCCGAUGAAGGUGUAGAGACUAGACGGCACCCACCUAAGGCCAACGAUAUGGUGAAGGCAUAGUCCAGGGAGGGGCGAAAGUCACACAAACCGG [C82A A145C C150A U176G]	0.0123
GUGCCUUGCGCCGGGAAACCACGCAAGGGAUGGUGUCAAAUUCGGCGAAACCUAAGCGCCCGCCCGGGCGUAUGGCAACGCAGAGCCAAGCUUCGGCGCCUGCGCCGAUGAAGGUGUAGAGACUAGACGGCACCCACCUAAGGCCAACGGUAUGGUGAAGGCAUAGUCGAGGGAGGGGCGAAAGUCACACAAACCGG [C82A A145C C150G C169G U176G]	0.00508
GUGCCUUGCGCCGGGAAACCACGCAAGGGAUGGUGUCAAAUUCGGCGAAACCUAAGCGCCCGCCCGGGCGUAUGGCAACGCAGAGCCAAGCUUCGGCGCCUGCGCCGAUGAAGGUGUAGAGACUAGACGGCACCCACCUAAGGCCAACGGUAUGGUGAAGGCAUAGUCGAGGGAGAGGCGAAAGUCACACAAACCGG [C82A A145C C150G C169G U176A]	0.00895

Reference: the RNAGym collection of RNA variant scans (doi:10.1093/molbev/msab373)
